From PMC9820303, “^αN-Acetyl β-Endorphin Is an Endogenous Ligand of σ1Rs That Regulates Mu-Opioid Receptor Signaling by Exchanging G Proteins for σ2Rs in σ1R Oligomers” (International Journal of Molecular Sciences, 2022)

Target: T1, σ1R oligomers-G proteins (Gi2, Go, Gq-11, Gz) (Mus musculus, UniProt O55242)
T1 construct: The coding region of the full-length murine σ1R (AF004927); GST (N); made in house; host or cells: E. coli BL21 (KRX) for σ1R; the G proteins come from solubilised mouse cerebral cortex synaptosomal membranes
T1 sequence (O55242 whole entry): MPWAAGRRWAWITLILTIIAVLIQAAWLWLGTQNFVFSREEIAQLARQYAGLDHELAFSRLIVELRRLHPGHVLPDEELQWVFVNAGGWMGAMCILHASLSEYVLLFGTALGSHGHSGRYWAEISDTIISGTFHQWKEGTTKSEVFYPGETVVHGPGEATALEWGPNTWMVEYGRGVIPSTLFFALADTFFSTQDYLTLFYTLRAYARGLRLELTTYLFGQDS
Experiment: Ex vivo fishing assay: G proteins of mouse solubilized brain membranes (SBM) bound to agarose-σ1R oligomers
Format: biochemical
Details: for effect on G protein binding to agarose-σ1R oligomers: 2 h, increasing concentrations, n = 3
Procedure: (A) The effect of σ1R deletion on opioid- and cannabinoid-induced analgesia. Analgesic compounds were icv-injected into wild-type and σ1R^−/− mice, and analgesia was evaluated 30 min after morphine (3 nmol) and β-End 1–31 (0.5 nmol), 15 min after DAMGO (0.1 nmol) and DPDPE (10 nmol) and 10 min after WIN55,212-2 (15 nmol). The bars are the mean ± SD of eight mice per strain and treatment. * Significant difference with respect to the effect of the analgesic substance in the wild-type group. ANOVA followed by the Holm–Sidak multiple comparisons test, p < 0.05, 1-β > 0.80. (B) Coprecipitation of G proteins with MORs. Solubilized mouse brain cortical membranes enriched in synaptosomes (SBM) from CD1 wild-type (WT) and σ1R^−/− mice were solubilized with sonication in the presence of 1% NP-40. Non-soluble debris was eliminated, and the samples were then incubated overnight at 4 °C with affinity-purified biotinylated IgGs that were raised against extracellular regions of the MOR. Protein complexes that were immunoprecipitated with streptavidin agarose were extensively washed and then resolved by SDS-PAGE. The target G proteins, alpha and beta subunits, were visualized by Western blotting (for further details, see Section 4). IP: immunoprecipitated protein, WB: Western blot. Detection of MORs: these proteins were detected with an anti-MOR antibody directed to the C-terminal sequence, a different amino acid sequence than that used for immunoprecipitation (second extracellular loop-2EL). In parallel blots, an antibody directed to the light IgG chain of the anti-MOR antibodies used for immunoprecipitation of MORs provided a loading control for the samples in the gels. […] The immunosignals of Gα subunits coprecipitated with MORs were referred to those of the MORs. Data are the mean ± SD of three determinations. ANOVA followed by the Holm–Sidak multiple comparisons test, p < 0.05, 1-β > 0.80. (C) Pull-down assays using mouse SBM. Cerebral cortex fractions enriched in synaptosomes from CD1 WT mice were solubilized with RIPA buffer and incubated for 2 h with recombinant σ1Rs covalently attached to agarose-NHS (Θ-σ1R). Agarose pellets containing the bound proteins were resolved by SDS-PAGE, and the G protein α subunits were probed in Western blots. The capture of σ1Rs and σ2Rs by Θ-σ1R was also determined in SBM from WT, σ1R^−/− and σ2R^−/− mice. […] Representative blots are shown. (D) Effect of ligands on the association of endogenous G proteins present in mouse SBM with Θ-σ1R oligomers produced in vitro (see Section 4). The Θ-σ1Rs were incubated with the SBM in the absence and presence of increasing concentrations of σ1R ligands. The G proteins that remained bound to Θ-σ1R oligomers were determined as in (C). […] For each compound and concentration studied data are the mean ± SD, n = 3. Data were analyzed by pairwise Holm–Sidak multiple comparison tests following ANOVA: p < 0.05, 1-β > 0.80.
For fishing studies, solubilization of neural synaptosomes from cerebral cortices or PAG was carried out at 4 °C in RIPA buffer. The membranes were incubated at 4 °C for 16 h with agitation, and then centrifuged at 10,000× g for 5 min. The supernatant was cleared with 20 μL of Sepharose 4B (#17-0120-01, GE Healthcare) pre-equilibrated for 1 h at 4 °C, followed by centrifugation at 4300× g for 5 min. The σ1R was immobilized through covalent attachment to N-Hydroxysuccinimide (NHS)-activated Sepharose 4 fast flow (4FF, #17-0906-01; GE) according to the manufacturer’s instructions.

Row | Compound | effect on G protein binding to agarose-σ1R oligomers (wild-type SBM) | release of G proteins from σ1R oligomers in the absence of σ2Rs (SBM from σ2R−/− mice) | concentrations needed for Gz to be freed from σ1R oligomers (wild-type SBM) | concentrations releasing Go, Gq-11 and Gi2 proteins from σ1R oligomers (wild-type SBM)
1 | Cl.O=C(OCCN1CCOCC1)C1(c2ccccc2)CCCCC1 [PRE084, 2-(4-morpholinethyl)-1-phenylcyclohexanecarboxylate hydrochloride, reference compound] | did not disrupt G protein binding to σ1R oligomers but increased the binding to Gz proteins |  |  | 
2 | Cc1cc(OCCN2CCOCC2)nn1-c1ccc2ccccc2c1 [S1RA] | exhibited G-protein-releasing effects |  |  | 
3 | KKGE [β-End 28–31, C-terminal tetrapeptide of β-End 1–31] | showed G-protein-releasing effects |  |  | 
4 | ^αN-acetyl β-End 1–31: β-End 1–31 acetylated at N terminal Y1, α position | efficiently released G proteins from agarose-σ1Rs | failed to release G proteins from σ1R oligomers | pM concentrations | fM concentrations
5 | β-End 1–26: β-End 1–31 derivative without 5 C-terminal residues (YGGFMTSEKSQTPLVTLFKNAIIKNA; Beta-endorphin; UniProt P01189 237-262, looked up, fragment) | showed G-protein-releasing effects |  |  | 
6 | β-End 1–27: β-End 1–31 derivative without 4 C-terminal residues (YGGFMTSEKSQTPLVTLFKNAIIKNAY; Beta-endorphin; UniProt P01189 237-263, looked up, fragment) | showed G-protein-releasing effects |  |  | 
